Assay results: PMC8630191, “Regulation of PP2A, PP4, and PP6 holoenzyme assembly by carboxyl-terminal methylation” (Scientific Reports, 2021)
One block for each binder: values may come before it.

How the values were obtained:
Settings in all cases: partners not purified
[1] = target: T1, 3xFLAG-tagged PP2Acβ ΔL mutant (Leu 309 deleted) (human, UniProt P62714 1-309, ΔL309); experiment: affinity purification with mass spectrometry; 3xFLAG-tagged catalytic subunit (WT or ΔL) transfected in FreeStyle 293F cells; FLAG M2 affinity gel, 3 h at 4 °C; lysis and wash buffer 50 mM Tris pH 7.5, 500 mM NaCl, 0.5% Triton X-100; eluted with 3XFLAG peptide; label-free quantitative LC-MS/MS on unique peptides, three replicates
T1 construct: PP2A catalytic subunit, beta isoform (PP2Acβ, PPP2CB), human, in p3XFLAG-CMV10; C-terminal Leu 309 deleted by inserting a stop codon; also called ΔL309

[2] = target: T2, PP2A catalytic subunit PP2Acα/β, endogenous (human (endogenous in HEK293T, HeLa, …, UniProt P67775 1-309, carboxyl methyl ester on the C-terminal leucine in wild-type cells; strongly reduced in LCMT1 hypomorph cells); experiment: affinity purification with mass spectrometry; PIB-MS: phosphatase inhibitor beads (microcystin-LR on sepharose) on HeLa lysates, wild type and LCMT1 hypomorph clone; label-free LC-MS/MS; subunits normalised to the respective catalytic subunit
T2 construct: PP2A catalytic subunit, alpha (PPP2CA) or beta (PPP2CB) isoform; One molecule for wild-type and LCMT1 hypomorph cells; also called PP2Acβ; PPP2CA/B

[3] = target: T2, PP2A catalytic subunit PP2Acα/β, …; experiment: affinity purification with mass spectrometry; PIB-MS: phosphatase inhibitor beads (microcystin-LR on sepharose) on Rpe1 lysates, wild type and pooled LCMT1 hypomorph cells; label-free LC-MS/MS; subunits normalised to the respective catalytic subunit

T2 sequence (P67775 whole entry, canonical isoform): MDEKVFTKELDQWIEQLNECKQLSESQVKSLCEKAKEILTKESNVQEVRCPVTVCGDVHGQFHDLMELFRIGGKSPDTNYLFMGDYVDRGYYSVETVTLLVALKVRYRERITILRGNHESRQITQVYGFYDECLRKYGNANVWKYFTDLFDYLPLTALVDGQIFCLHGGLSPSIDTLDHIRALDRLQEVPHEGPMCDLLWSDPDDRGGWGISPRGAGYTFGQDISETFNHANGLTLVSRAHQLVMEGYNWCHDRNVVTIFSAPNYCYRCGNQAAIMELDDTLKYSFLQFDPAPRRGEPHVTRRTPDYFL
T1 sequence (P62714 1-308, stated change not applied): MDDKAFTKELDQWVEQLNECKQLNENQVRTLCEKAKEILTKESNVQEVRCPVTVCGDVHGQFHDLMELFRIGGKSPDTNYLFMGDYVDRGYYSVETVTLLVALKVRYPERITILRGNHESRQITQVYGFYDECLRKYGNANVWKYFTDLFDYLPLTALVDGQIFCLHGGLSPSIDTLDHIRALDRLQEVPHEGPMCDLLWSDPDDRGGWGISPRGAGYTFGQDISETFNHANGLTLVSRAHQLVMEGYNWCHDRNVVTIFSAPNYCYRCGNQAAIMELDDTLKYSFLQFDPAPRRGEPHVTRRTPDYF

B1: B56δ, PP2A regulatory subunit (natural protein)
chain: not shown
notes: PP2A regulatory subunit B56, delta isoform
fold reduction of binding, ΔL against WT [1]: 2 fold

B2: B55β, PP2A regulatory subunit (natural protein, human (endogenous in HeLa), UniProt Q00005 1-443, looked up)
chain: MEEDIDTRKINNSFLRDHSYATEADIISTVEFNHTGELLATGDKGGRVVIFQREQESKNQVHRRGEYNVYSTFQSHEPEFDYLKSLEIEEKINKIRWLPQQNAAYFLLSTNDKTVKLWKVSERDKRPEGYNLKDEEGRLRDPATITTLRVPVLRPMDLMVEATPRRVFANAHTYHINSISVNSDYETYMSADDLRINLWNFEITNQSFNIVDIKPANMEELTEVITAAEFHPHHCNTFVYSSSKGTIRLCDMRASALCDRHTKFFEEPEDPSNRSFFSEIISSISDVKFSHSGRYIMTRDYLTVKVWDLNMENRPIETYQVHDYLRSKLCSLYENDCIFDKFECVWNGSDSVIMTGSYNNFFRMFDRNTKRDVTLEASRENSKPRAILKPRKVCVGGKRRKDEISVDSLDFSKKILHTAWHPSENIIAVAATNNLYIFQDKVN
notes: PP2A regulatory subunit B55, beta isoform; source: endogenous, HeLa lysate
fold reduction of binding, LCMT1 HM against WT cells [2]: ~4 fold

B3: B55α, PP2A regulatory subunit (natural protein, human (endogenous in HeLa), UniProt P63151 1-447, looked up)
chain: MAGAGGGNDIQWCFSQVKGAVDDDVAEADIISTVEFNHSGELLATGDKGGRVVIFQQEQENKIQSHSRGEYNVYSTFQSHEPEFDYLKSLEIEEKINKIRWLPQKNAAQFLLSTNDKTIKLWKISERDKRPEGYNLKEEDGRYRDPTTVTTLRVPVFRPMDLMVEASPRRIFANAHTYHINSISINSDYETYLSADDLRINLWHLEITDRSFNIVDIKPANMEELTEVITAAEFHPNSCNTFVYSSSKGTIRLCDMRASALCDRHSKLFEEPEDPSNRSFFSEIISSISDVKFSHSGRYMMTRDYLSVKIWDLNMENRPVETYQVHEYLRSKLCSLYENDCIFDKFECCWNGSDSVVMTGSYNNFFRMFDRNTKRDITLEASRENNKPRTVLKPRKVCASGKRKKDEISVDSLDFNKKILHTAWHPKENIIAVATTNNLYIFQDKVN
notes: PP2A regulatory subunit B55, alpha isoform; source: endogenous, HeLa lysate
fold reduction of binding, LCMT1 HM against WT cells [2]: ~11 fold

B4: B56ε, PP2A regulatory subunit (natural protein)
chain: not shown
notes: PP2A regulatory subunit B56, epsilon isoform
fold reduction of binding, ΔL against WT [1]: 11 fold
fold more reduced in binding (LCMT1 HM against WT cells) than B56γ and B56δ [2]: 8 fold

B8: B56α, PP2A regulatory subunit (natural protein)
chain: not shown
notes: PP2A regulatory subunit B56, alpha isoform
fold reduction of binding, ΔL against WT [1]: 32 fold

Other lines, results leading:

fold reduction of binding, LCMT1 HM against WT cells [3]: 4 fold
B5: STRN3 (striatin-3) (natural protein, human (endogenous in Rpe1), UniProt Q13033 1-797, looked up)
chain: MDELAGGGGGGPGMAAPPRQQQGPGGNLGLSPGGNGAAGGGGPPASEGAGPAAGPELSRPQQYTIPGILHYIQHEWARFEMERAHWEVERAELQARIAFLQGERKGQENLKKDLVRRIKMLEYALKQERAKYHKLKYGTELNQGDLKMPTFESEETKDTEAPTAPQNSQLTWKQGRQLLRQYLQEVGYTDTILDVRSQRVRSLLGLSNSEPNGSVETKNLEQILNGGESPKQKGQEIKRSSGDVLETFNFLENADDSDEDEENDMIEGIPEGKDKHRMNKHKIGNEGLAADLTDDPDTEEALKEFDFLVTAEDGEGAGEARSSGDGTEWDKDDLSPTAEVWDVDQGLISKLKEQYKKERKGKKGVKRANRTKLYDMIADLGDDELPHIPSGIINQSRSASTRMTDHEGARAEEAEPITFPSGGGKSFIMGSDDVLLSVLGLGDLADLTVTNDADYSYDLPANKDAFRKTWNPKYTLRSHFDGVRALAFHPVEPVLVTASEDHTLKLWNLQKTVPAKKSASLDVEPIYTFRAHIGPVLSLAISSNGEQCFSGGIDATIQWWNMPSPSVDPYDTYEPNVLAGTLVGHTDAVWGLAYSGIKNQLLSCSADGTVRLWNPQEKLPCICTYNGDKKHGIPTSVDFIGCDPAHMVTSFNTGSAVIYDLETSQSLVILSSQVDSGLQSNNHINRVVSHPTLPVTITAHEDRHIKFFDNKTGKMIHSMVAHLDAVTSLAVDPNGIYLMSGSHDCSIRLWNLDSKTCVQEITAHRKKLDESIYDVAFHSSKAYIASAGADALAKVFV
notes: Striatin-3, PP2A regulatory subunit of the striatin family (B'''); source: endogenous, Rpe1 lysate

fold reduction of binding, LCMT1 HM against WT cells [3]: 4 fold
B6: STRN (striatin) (natural protein, human (endogenous in Rpe1), UniProt O43815 1-780, looked up)
chain: MDEQAGPGVFFSNNHPGAGGAKGLGPLAEAAAAGDGAAAAGAARAQYSLPGILHFLQHEWARFEVERAQWEVERAELQAQIAFLQGERKGQENLKKDLVRRIKMLEYALKQERAKYHKLKYGTELNQGDMKPPSYDSDEGNETEVQPQQNSQLMWKQGRQLLRQYLQEVGYTDTILDVKSKRVRALLGFSSDVTDREDDKNQDSVVNGTEAEVKETAMIAKSELTDSASVLDNFKFLESAAADFSDEDEDDDVDGREKSVIDTSTIVRKKALPDSGEDRDTKEALKEFDFLVTSEEGDNESRSAGDGTDWEKEDQCLMPEAWNVDQGVITKLKEQYKKERKGKKGVKRPNRSKLQDMLANLRDVDELPSLQPSVGSPSRPSSSRLPEHEINRADEVEALTFPPSSGKSFIMGADEALESELGLGELAGLTVANEADSLTYDIANNKDALRKTWNPKFTLRSHFDGIRALAFHPIEPVLITASEDHTLKMWNLQKTAPAKKSTSLDVEPIYTFRAHKGPVLCVVMSSNGEQCYSGGTDGLIQGWNTTNPNIDPYDSYDPSVLRGPLLGHTDAVWGLAYSAAHQRLLSCSADGTLRLWNTTEVAPALSVFNDTKELGIPASVDLVSSDPSHMVASFSKGYTSIFNMETQQRILTLESNVDTTANSSCQINRVISHPTLPISITAHEDRHIKFYDNNTGKLIHSMVAHLEAVTSLAVDPNGLYLMSGSHDCSIRLWNLESKTCIQEFTAHRKKFEESIHDVAFHPSKCYIASAGADALAKVFV
notes: Striatin, PP2A regulatory subunit of the striatin family (B'''); source: endogenous, Rpe1 lysate

fold reduction of binding, ΔL against WT [1]: ~2 fold
B7: PR65β, PP2A scaffolding (A) subunit (natural protein, UniProt P30154 1-601, looked up)
chain: MAGASELGTGPGAAGGDGDDSLYPIAVLIDELRNEDVQLRLNSIKKLSTIALALGVERTRSELLPFLTDTIYDEDEVLLALAEQLGNFTGLVGGPDFAHCLLPPLENLATVEETVVRDKAVESLRQISQEHTPVALEAYFVPLVKRLASGDWFTSRTSACGLFSVCYPRASNAVKAEIRQQFRSLCSDDTPMVRRAAASKLGEFAKVLELDSVKSEIVPLFTSLASDEQDSVRLLAVEACVSIAQLLSQDDLETLVMPTLRQAAEDKSWRVRYMVADRFSELQKAMGPKITLNDLIPAFQNLLKDCEAEVRAAAAHKVKELGENLPIEDRETIIMNQILPYIKELVSDTNQHVKSALASVIMGLSTILGKENTIEHLLPLFLAQLKDECPDVRLNIISNLDCVNEVIGIRQLSQSLLPAIVELAEDAKWRVRLAIIEYMPLLAGQLGVEFFDEKLNSLCMAWLVDHVYAIREAATNNLMKLVQKFGTEWAQNTIVPKVLVMANDPNYLHRMTTLFCINALSEACGQEITTKQMLPIVLKMAGDQVANVRFNVAKSLQKIGPILDTNALQGEVKPVLQKLGQDEDMDVKYFAQEAISVLALA
notes: PP2A scaffolding subunit A, beta isoform (PR65β)
